In the nanobody polyreactivity screen of Harvey et al. (2022):

Assay: yeast display, Sf9 membrane polyspecificity reagent, FACS + sequencing; frameworks hold sequencing errors
Outline: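 Using colony PCR, genes from sorted yeast display clones were amplified, then sequenced on MiSeq at 2 × 250 and filtered by CDR length. The clones had been stained with 10% biotinylated, detergent-solubilized Sf9 membrane reagent for 1 hour at 4 °C and sorted by FACS into low and high (top ~1%) gates on anti-HA and streptavidin fluorescence. Polyreactivity labels come from the gate of origin.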

| Sequence | polyreactivity (PSR sort gate) |
| --- | --- |
| QVQLVESGGGLVQAGGSLRLSCSASGLTFKENAMGWYRQAPGTERELVAAISKGGGSTFYADSVKGRFTISRDNAKNTVYLQMNTLKPEDTAVYYCNADVGYRGGEEDYWGQGTQVTVSS | low polyreactivity |
| QVQLVESGGGLVQAGGSLRLSCSASGLTFNFNAMGWYRQAPGKERELVAAISYRAGSTYYADSVKGRFTISRDNAKNTVYLQMNSLKPEDTAVYYCAADGYYYVKSGTYWSDYWGQGTQVTVSS | low polyreactivity |
| QVQLVESGGGLVQAGGSLRLSCSASGNTIRYYALGWYRQAPGKERELVATITSGGRTYYADSVKGRFTISRDNAKNTVYLQMNSLKPEDTAVYYCAAGSRSDARRYYYWGQGTQVTVSS | low polyreactivity |
| QVQLVESGGGLVQAGGSLRLSCSASGRIFGRYAMGWYRQAPGKERELVAAISASGGSTYYADSVKGRFTISRDNAKNTVYLQMNSLKPEDTAVYYCAADAPAEYYWGQGTQVSVSS | low polyreactivity |
| QVQLVESGGGLVQAGGSLRLSCSASGRIFRFYGMGWYRQAPGKDRELVAAISSRGGSTYYADSVKGRFTISRDNAKNTVYLQMNSLKPEDSGVYYCAASGAFWYPYDYWGQGTQVTVSS | high polyreactivity |
| QVQLVESGGGLVQAGGSLRLSCSASGRIISFYVMGWYRQAPGKDRELVAAISLSGGSTYYADSVKGRFTISRDNAKNTVYLQMNSLKPEDTAVYYCAADQTLVGLPYNYWGQGTQLTVSS | high polyreactivity |
| QVQLVESGGGLVQAGGSLRLSCSASGRNFKYYAMGWYRKAPGKERELVAAITSTGGSTYYADSVKGRFTISRDNGKNTVYLQLNSLKPEDTAVYYCNRDTQYRDRSDNHWGQGTQVTVSS | high polyreactivity |
| QVQLVESGGGLVQAGGSLRLSCSASGRTFGGNAMGWSRPAPGKERELVAAIARSGGTTYYADSVKGRFTISRDNAKNTVYLQMNSLKPEDTAVYYCNTRRYGAMYYWGQGTQVTVSS | high polyreactivity |
| QVQLVESGGGLVQAGGSLRLSCSASGRTFHYYAMGWYRQAPGKERELVAVIRYSGGRTYYADSVKGRFTISRDNAKNTVYLQMNSLKPEDTAVYYCNKGRWRTDQPVYLIAFDYWGQGTQVTVTS | low polyreactivity |
| QVQLVESGGGLVQAGGSLRLSCSASGRTFSAYAMGWDRPAPGKERELVARITSVDSTNYADSVKGRFTISRDNAKNSVYLKMNSLTPEDTAVYYCNATFCYPFFDYDDYWGQGTQVTVSS | low polyreactivity |
| QVQLVESGGGLVQAGGSLRLSCSASGRTFYEYAMGWYIQAPGKERELVAGITSGGSTNYADSVKGRFTISRDNAKNTVYLQMNSLKPEDTAVYYCAATYWGYEYDYWGQGTQVTVSS | low polyreactivity |
| QVQLVESGGGLVQAGGSLRLSCSASGSIFGIYTMGWYRQAPGKERELVAAINSGGSTNYADSVKGRFTISRDNAKNTVYLQMNSLKPEDTAVYYCAAGGSSSWAFNYWGQGTQVTVSS | low polyreactivity |
| QVQLVESGGGLVQAGGSLRLSCSASGSIFLYYTMGWYRQEPGKERELVAAITWSGASTYYADSVKGRFTISRDNGKITVYLQMNSLKPEDTAVYYCATRYRYRYCGQGTQVTVSS | high polyreactivity |
| QVQLVESGGGLVQAGGSLRLSCSASGSIFPTYAMGWYRKAPGKERELVAAIRSGSNTYYADSVKGRFTISRDNAKNTVYLQMNSLKPEDTAVYYCNKATNLSGGYDSWGQGTQVTVSS | low polyreactivity |
| QVQLVESGGGLVQAGGSLRLSCSASGSIFRFNAKGWYRQAPGKERELVASSRWDTASTYYADSVKGRFTISRDNAKNTVYLQMNSLKPEDTAVYYCNAGRPRFYRSRWYYYGYGYWGQGTQVTVSS | high polyreactivity |
| QVQLVESGGGLVQAGGSLRLSCSASGSIFRYYAMGWYRQPPGKEREFVASITYRGGRTYYADSVKGRFTISRDNAKKTVYLQMNSLKPEDTAVYYCAARTRAGAWTSKYHDYWGEGTQVTVSS | high polyreactivity |
| QVQLVESGGGLVQAGGSLRLSCSASGSIFSHYVMGWYRQAPGKERELVAAISPSGDSTYYADSVKGRFTISRDNAKNTVYLQMNSLKPEDTAVYYCNAGFGQYRYRGHDDYWGQGTQVTVSS | high polyreactivity |
| QVQLVESGGGLVQAGGSLRLSCSASGSIFWYNAMGWYRHAPGKERELVAAISRSGSRTYYADSVKGRFTISRDYAKNTVYLQMNSLKPEDTAVYYCARVRPRVLYFVLHYDYWGQGTQVTVSS | high polyreactivity |
| QVQLVESGGGLVQAGGSLRLSCSASGSIFYTYAMGWYRQAPGKERELVAAISRSGGITYYADSVKGRFTISRDNAKNTVYLEMNSLKPEDTAVYFCNVASASPGRYDYWGQGTQVTLSS | high polyreactivity |
| QVQLVESGGGLVQAGGSLRLSCSASGSISYYNAMAWYRQAPGKERELVASITRRGGTTNYAESVKGRFSISRDNAKHTVYLQMNSLKPEDTAVYNCNAEYPYWTPDYNYRFDYWGQGTQVTVSS | high polyreactivity |
| QVQLVESGGGLVQAGGSLRLSCSASGSTFGQYAMGWYRHAPGKERELVAAISRGGGSTYYADSVKGRFTISRDNAKYTVYLQMNSLKPEDTAVYYCNALSARSYYWGQGTQVTVSS | high polyreactivity |
| QVQLVESGGGLVQAGGSLRLSCSASGSTFHPYAMGWYRQAPGKERELVAAINSGDNTYYADSVKGRFTITRDNAKNTVYLQMNSLKPEDTAVYYCAVRYWDESHTEYDYWGQGTQVTVSS | low polyreactivity |

| Sequence | polyreactivity (PSR sort gate) |
| --- | --- |
| QVQLVESGGGLVQAGGSLRLSCSASGSTFPSNAMGWYRQAPGKERELVAAIRGRGGSTYYADSVKGRFTISRDNAKNTVYLQMNSLKPEDTAVYYCAKKVRSYVRWEYDYWGQGTQVTVSS | low polyreactivity |
| QVQLVESGGGLVQAGGSLRLSCSASGSTFSRYAMGWYRQAPGKEREFVAAISQRGGSTYYADSVKGRFTISRDNAKNTVYLQMNSLKPEDTAVYYCAARRVPQLDDYWGQGTQVTVSS | high polyreactivity |
| QVQLVESGGGLVQAGGSLRLSCSASGSTIRDYAMGWYRQAPGKERELVAVIDNSGGRTYYADSVKGRFTISRDNAKNTVYLQMNSLKPEDTAVYYCNTRRIAQYGYWGQGTEVTVSS | high polyreactivity |
| QVQLVESGGGLVQAGGSLRLSCSASGTFYGYAMAWSRQAPGKERELVASSTWGGGRTYYADSVKGRFTTSRDNAKNTVYLQMNSLKPEDTAVYYCATRSRPQYNKYDYWGQGTQVTVSS | high polyreactivity |
| QVQLVESGGGLVQAGGSLRLSCSASGTTFRGYAMGWYRQAPGKEREVVAAISNNGVTTYYADSVKGRFTISRDNAKNTVYLQMNSLKPEDAAVYYCAAGLYHGFAASDEIRGDYWGLGTQVTVSS | low polyreactivity |
| QVQLVESGGGLVQAGGSLRLSCSATGNTLDVNARGWYRQAPGKERELVAAITSGGSTNYADSVKVRFTISRDNAKNTVYLQMNSLKPEDTAVYYCAATAALGRPEYYWGQGSQVTVSS | low polyreactivity |
| QVQLVESGGGLVQAGGSLRLSCTASGFTFFSNAMGWYRQAPVKEREFVASISRSGGRTYYADSVKGRFTISRDNEKNTVYLQMNSLKPEDTAVYYCAADVPYYLHNPRYGYWGQGTQVTVSS | high polyreactivity |
| QVQLVESGGGLVQAGGSLRLSCTASGIIFGTFAMGWYRQAPGKERELVAAISSSGVSTYYADSVKGRFTISRDNAKNTVYLQMNSLKPEDTAVYYCAAPLHYGYYYWGQGTQVTVSS | high polyreactivity |
| QVQLVESGGGLVQAGGSLRLSCTASGRIFTRNAMGWYRQAPGKERELVASISRTGTSTYYADSVKGRFTISRDNEKNNVYLQMNSLKPEDTAVYYFNARRTSVRFDYWGQGTQVTVSS | high polyreactivity |
| QVQLVESGGGLVQAGGSLRLSCTASGRTLYNYTMGWYRQAPGKERELVATINFSGGSTYYADSVKGRFTISRDNAKNTVYLQMNSLKPEDTAVYYCNARGYHYAYKGAYLGDYYWGQGTQVTVSS | low polyreactivity |
| QVQLVESGGGLVQAGGSLRLSCTASGSIFVTNAMGWYRQAPGKERELVAAITWGGGNTTYADSVKGRFTISRDNAKNTVDLQMNSLKPEDTAVYYCAKDPYVNRDYWGQGTQVTVSS | low polyreactivity |
| QVQLVESGGGLVQAGGSLRLSCVASGLTQPYAMGWYRQAPGKERELVAAISSSGGRTSYADSVKGRFTISRDNAKNTVYLQMNSLKPEDTAVYYCNVDLGVNGDYWGQGTQVTVSS | low polyreactivity |
| QVQLVESGGGLVQAGGSLRLSCVASGRIIPGNAMGGYRQAPGKESELVAAISYGGGSTYYADSVKGRFTISRDNAKNTVYLQMNSLKPADTAVYYCAAASSGEYGYWGQGTQVTVSS | low polyreactivity |
| QVQLVESGGGLVQAGGSLRLSCVASGRTFSRYAMGWYRQAPGKERELVAAISRRGGSTYYADSVKGRFTISRDNAKNTVYLQMNSLKPEDTAVYYCAAGYITWGSGNWVVTPYDYWGLGTQVTVSS | high polyreactivity |
| QVQLVESGGGLVQAGGSLRLSCVASGSIFGSYAMGWYRQAPGKERELVASISDSGGSTDYADSVKGRFTISRDNAKNTVYLQMHSLKPEDTAVYYCAADDFSGYVTEYDYWGQGTQVTVSS | low polyreactivity |
| QVQLVESGGGLVQAGGSLRLSFAASEGWYRQAPGKERELVAAISYIGGSTYYADSEKGRFTISRDNAKNTVYLQMNRLKPEDTAVYYCAKGYPDPKWGGVLAYDYWGQGTQVTVSS | low polyreactivity |
| QVQLVESGGGLVQAGGSLRLSFAASGFTFRNYAMGWYRQAPGKERELVAAISTSGGRTYYADSVKGRFTISRDNAKNTVYLEMNSLKPEDTAVYYCNAGSGSYSYRYNYWGQGTQVTVSS | high polyreactivity |
| QVQLVESGGGLVQAGGSLRLSFAASGGTFRPYAMGWYRQAPGKETELVATIRSSGGRTYYADSVKGRFTISRDNAKNTVYLQMNSLKPEDTAVYYCAKRAQTYYGYDYWVQGTQVTVSS | high polyreactivity |
| QVQLVESGGGLVQAGGSLRLSFAASGGTLDVYAMGWYRQAPGKEREFVAAISWSGGRTYYADSVKGRFTISRDNAKNTVYLQMISLKPEDTAVFFCATDLYISIRYGGYYWGQGTQVTVSS | high polyreactivity |
| QVQLVESGGGLVQAGGSLRLSFAASGRIFAYYVMGWYRQAPGKARELVAAITGSGGSTYYADSVKGRFTISRDNAKNTVYLQMNSLKPEDTAVYYCNADFVWRGDYWGQGTQVTVSS | low polyreactivity |
| QVQLVESGGGLVQAGGSLRLSFAASGRIFKRNTKRWYRQAPGKETELVAAITYSGITYYADSVKGRFTISRDNAKNTFYLQMNSLKPEDTAVYYCDKVLYPIGSPRFEYWGQGTQVTVSS | low polyreactivity |
